The values that follow come from patent US20170189529A1 (CONTRAFECT, published 2017).

Where two headings read alike, the source gives them in different places. Where only a bound is given, the exact number is not on record here.

Experiment [1] has as its target T1, hemagglutinin (HA) of influenza B virus B/Malaysia (Victoria lineage) (influenza B virus B/Malaysia/04 …). Kind of experiment: recombinant HA ELISA (AttoPhos fluorescence, mean of triplicates). (In general: In an ELISA, binding on a coated surface is turned into a signal by an enzyme label.)
Experiment [2] deals with recombinant HA of influenza B virus B/Brisbane/08 (Victoria clade) (influenza B virus B/Brisbane/08 …). The experiment is described as above.
Experiment [3] addresses T2, hemagglutinin (HA) of influenza B virus B/Florida (Yamagata lineage) (influenza B virus B/Florida/06 …). The description is as above.
The target in experiment [4] is recombinant HA of influenza B virus B/Mass/12 (Yamagata clade) (influenza B virus B/Mass/12 (Yamagata …)). Described as above.
For experiment [5], the target named is recombinant HA of influenza B virus B/Wisconsin/10 (Yamagata clade) (influenza B virus B/Wisconsin/10 …). Described as above.
The target of experiment [6] is T1, hemagglutinin (HA) of influenza B virus …. Description: ForteBio Octet; antigen on the sensor, varying antibody concentrations.
In experiment [7] the target is T2, hemagglutinin (HA) of influenza B virus …. The description is as above.
For experiment [8] the target is unchanged.

B1: TRL847 (antibody, V domains shown)
VH: QVQLVESGGGLVQPGGSLRLSCVASGFTFSRFSMNWVRQAPGMGLEWVSYISDTGRTIYYADSVKGRFTISRDNDKNTLYLQMKSLRDEDSAFYYCARDPDTPFVRAFDSWGQGVLVTVSS
VL: DIVMTQSPSFLSASVGDRVTITCRTSQVISSYLAWYQQRPGKAPKLLIYAASTLQSGVPSRFSGSGSGTRFSLTISNLQPEDFATYFCQQLTTYPPITFGQGTRLEIKR
Regarding B1, the “fold reactivity over background” value in experiment [1], in experiment [2], in experiment [3], in experiment [4] and in experiment [5] was 25.6 fold over background in each case. Besides, the Kd in experiment [6] is less than 1 nM; in experiment [7], 0.7 nM.

B2: TRL841 (antibody, V domains shown)
VH: QVQLVESGGGVVQPGRSLRLSCAASGFTFSSYGIYWVRQAPGKGLEWVAFISYDEINKFYADSVKGRFTISRDNSKNTVFLQMNSLRDEDTAVYYCAKPLRGSYRYFDLWGRGTVVTVSS
VL: DIVMTQPPATLSVSPGERATLSCGASQGLGSNLAWYQQKPGQAPRLLIYAASTRATGITARFSGSGSGTEFTLTINSLQSEDFALYYCQQYTYWPLTFGGGTKVEIKR
Regarding B2, the “fold reactivity over background” value in experiment [1], in experiment [2], in experiment [3], in experiment [4] and in experiment [5] was 25.6 fold over background in each case.

B3: TRL848 (antibody, V domains shown)
VH: QVQLLESGGDVVQPGTSLRLSCAASGFSLWTSGMHWVRQAPGKGLEWVAVMSYDETKKYYADSVRGRFSISRDNSRNTLYLQMNSLRVEDTAVYFCAKPRLDYLDYFHAADSWGQGTLVSVSS
VL: DIVLTQPPSVSVAPGQTATITCGGNYIGSKSVNWYQQRPGHAPVLVVYDDSDRPSGIPDRFSGSNSRSTATTATLTISRVEAGDEADYYCQVWETSEDLWVFGGGTKLTVLG
Regarding B3, the “fold reactivity over background” value in experiment [1], in experiment [2], in experiment [3], in experiment [4] and in experiment [5] was 25.6 fold over background in each case. The dissociation constant Kd in experiment [6] was less than 1 nM; in experiment [7], 3.9 nM; in experiment [8], 1.7 nM.

B4: TRL842 (antibody, V domains shown)
VH: QVQLLESGGDVVQPGTSLRLSCAASGFSLWTSGMHWVRQAPGKGLEWVAVMSYDETKKYYADSVRGRFSISRDNSRNTLYLQMNSLRVEDTAVYFCAKPRLDYLDYFHAADSWGQGTLVSVSS
VL: DIVLTQPPSVSVAPGQTATITCGGNYIGSKSVNWYQQRPGHAPVLVVYDDSDRPSGIPDRFSGSNSRSTATTATLTISRVEAGDEADYYCQVWETSEDLWVFGGGTKLTVLG
As to B4, the “fold reactivity over background” value in experiment [1], in experiment [2], in experiment [3], in experiment [4] and in experiment [5] was 25.6 fold over background each time. Further, the Kd in experiment [6] was less than 1 nM; in experiment [7] it was 2.5 nM.

B5: TRL832 (antibody, V domains shown)
VH: QVQLVESGPGLMKPSETLSLTCTVSGGSVSNYYWSWIRQPPGKGLEWIGYVFYSGSSNYNPSLNNPSLKSRVTISIDTSNNQFSLKLSSVTAADTAVYYCARGRVNSGYDWGPNFDSWGQGALVTVSS
VL: DIVLTQAPSVSVSPGQTASITCSGDRLGEKFASWYQQKPGQSPVLVIYEDSKRPSGIPDRFSGSNSGNTATLTISGTQIMDEGDFFCQAWDSSTVVFGGGTKLTVLG
In the case of B5, the “fold reactivity over background” value in experiment [1], in experiment [2], in experiment [3], in experiment [4] and in experiment [5] was 25.6 fold over background throughout. Also, the results for the Kd in experiment [6] and in experiment [7] were 0.2 nM and 1.7 nM, respectively.

B6: TRL856 (antibody, V domains shown)
VH: QVQLVESGGGLVQPGGSLRLSCAASGFTFSDYWMVWVRQAPGKGLVWVSRISSDGSTTSYADSVKGPFTISRDNAKNTLYLQMNSLRAEDTAVYYCARVATPYYYESGFDYWGQGALVTVSS
VL: DIVLTQSPSVSVAPGQTARITCGGNDIGSKSVHWYQQKPGQAPVLVVFDDRDRPSGIPERFSGSNSGNTATLTISRVEAGDEADYYCQVWDITSDLVVFGGGTKLTVVG
With B6, the “fold reactivity over background” value in experiment [1] worked out at 25.6 fold over background; in experiment [2], 24.1 fold over background; in experiment [3], 25.6 fold over background; in experiment [4] it was 25.6 fold over background; in experiment [5] it was 25.6 fold over background.

B7: TRL845 (antibody, V domains shown)
VH: QVQLVQSGGDLVQPGGSLRLSCAASGFTFSRYSMNWVRQAPGMGLEWVAYISDTSRTIYYADSVKGRFTISRDNAKNSLYLQMKSLRDEDTAVYYCARDPDTPFVRAFDSWGQGTLVTVSS
VL: DIVLTQSPSFLSASVGDRVTITCRASQLISSYFAWYQQKPGKPPKLLIYAASTLQSGVPSRFSGSGSGTQFSLTISSLQPEDFATYYCQQLNSYPPITFGQGTRLEIKR
B7: the “fold reactivity over background” value in experiment [1], in experiment [2], in experiment [3], in experiment [4] and in experiment [5] was 25.6 fold over background in each case. The Kd in experiment [6] is less than 1 nM; in experiment [7], 5.2 nM; in experiment [8], 0.19 nM.

B8: TRL812 (antibody, V domains shown)
VH: QVQLVQSGGGVVQPGRSLRLSCAASGFNFSSYGMHWVRQAPGKGLEWLSVIWSGGSNKYYADSVKGRFTISRDDSKNTVYLQMNSLRDEDTAVYYCARAHTALTRFRWLDPWGQGILVTVSS
VL: DIVMTQSPATLSVSPGEGATLSCRASQGIGSNLAWYQHKPGQAPRLLIYAASTRATGVPARFSGSGSGTEFTLTISSLQSEDLAVYFCQQYNTWPLTFGGGTKVEIIR
For B8, the “fold reactivity over background” value in experiment [1], in experiment [2], in experiment [3], in experiment [4] and in experiment [5] was 25.6 fold over background each time.

B9: TRL809 (antibody, V domains shown)
VH: QVQLLESGGGVVRPGRSLRLACAGSGFTFSAYAMHWVRQAPGKGLEWVAHTSYDGRDSYYVDSVKGRFTISRDDSKNTLYLQMNSLRPEDTAVYYCAKVGPYTGYDDYNYYGMDVWGHGTTVTVSS
VL: DIVLTQSPVSLAVSLGESATVNCKSSQSVLSNSKNLNYLAWYQHKPGQPPKLLIYWASTRESGVPDRFSGSGSGTDFTLTISSLQAEDVAVYYCQQHYSIPLTFGPGTKVDIKR
B9: the “fold reactivity over background” value in experiment [1], in experiment [2], in experiment [3], in experiment [4] and in experiment [5] was 25.6 fold over background throughout. The Kd worked out at 0.2 nM in experiment [6] and 0.18 nM in experiment [7].

B10: TRL813 (antibody, V domains shown)
VH: QVQLVESGGGLVQPGGSLRLSCAASGFIFGDFAIHWVRQASGKGLEWVARIRSGLNRFETAYAASVEGRLTISRDDSKSMAYLQMNNVKAEDTAVYLCTYLVGAVGFQHWGQGTLVTVSS
VL: DIVMTQSPSTLSASVGDRVTITCRASQTIYRWLAWYQQKPGKAPKVLIYKASTLESGVPSRFSGSGSGTEFTLAISSLQPDDFATYYCQQYNSFPYRFGQGTKVEIKR
In the case of B10, the “fold reactivity over background” value in experiment [1], in experiment [2], in experiment [3], in experiment [4] and in experiment [5] was 25.6 fold over background throughout.

B11: TRL849 (antibody, V domains shown)
VH: QVQLVESGPGLVKPSQTLSLTCTVSGGSISNGGYHWSWIRQHPGKGLEWIGNIYYRGSTFYDPSLKSRVTISVDTSKSQFSLKLTSVTAADTAVYYCARMPLANYDLLTGLYIGAFDLWGQGTMVTVSS
VL: DIVLTQSPATLSVSPGERATLSCRASQSVNRNLAWFQQIPGQAPRLLIFDASTRAADIPARFSGGGSGAEFTLTVSSLQPEDFAVYYCQQYDKWPPGFGQGTKVEIKR
In the case of B11, the “fold reactivity over background” value in experiment [1], in experiment [2], in experiment [3], in experiment [4] and in experiment [5] was 25.6 fold over background in each case. Moreover, the Kd is less than 1 nM in experiment [6] and 0.2 nM in experiment [7].

What is called Kd is the constant that tells how readily two partners part at equilibrium. Low readings indicate a tighter complex, high ones a looser complex.
